We go through 51 variants from the RNAGym collection of RNA variant scans (doi:10.1101/gr.219683.116).

The labels stand for the following.
B1: mRNA-splicing (parent)
chain: AGUUGCUGCUGGGAGCUCCAGCACAGUGAAAUGGACAGAAGGGCAGAGCAA

In this data set the parent is B1. As to the kind of experiment: exon inclusion enrichment index; higher = more inclusion; WT1 exon 5 minigene, HEK293.
As for AGUUGCUGCUGGGAGCUCCAGCACAGUGAAAUGGACAGAAGGGCAGCACAA [A47C G48A], the “exon inclusion enrichment index” value was found to be 0.0773. As for AGUUUCUCAUGGGAGCUCCAGCACAGUGAAAUGGACAGAAGGGCAGAGCAA [G5U G8C C9A], the figure is 0.689. To AGUUACCACCGGGAGCUCCAGCACAGUGAAAUGGACAGAACCGCAGAGCAA [G5A U7C G8A U10C G41C G42C] belongs 3.27; to AGUUCACACAGGGAGCUACAGCACAGUGAAAUGGACAGAAGGGCAGAGCAA [G5C C6A U7C G8A U10A C18A], 0.0467; to AGUUAUAUAUGGGAGCUCCAGCACAGUGGCAUGGACAGAAGGGCAGAGCAA [G5A C6U U7A G8U C9A A29G A30C], 0.0104. To AGUUAGGGAUGGGAGCUCUUGCACAGUGAAAUGGACAGAAGGGCAGAGCAA [G5A C6G U7G C9A C19U A20U] belongs 0.00173; to AGUUUCUUUUGGGUCCUCCAGCACAGUGAAAUGGACAGAAGGGCAGAGCAA [G5U G8U C9U A14U G15C], 0.0163; to AGUUCUUCUCGGGAGCUCCAGCACAGUGAAAUGGACAGAAGGGUGGAGCAA [G5C C6U G8C C9U U10C C44U A45G], 1.03.

AGUUCUAGUCGGGAGCUCCAGCACAGUGAAAUGGACAGAAGGGCAGAGCAA [G5C C6U U7A C9U U10C]: the “exon inclusion enrichment index” value worked out at 0.234.

As to AGUUUCUUUGUGGAGCUCCAGCACAGUGAAAUGGACAGAAGGGCAGAGCAA [G5U G8U C9U U10G G11U], the “exon inclusion enrichment index” value was determined as 0.498.

Take AGUUAUAUAUGGGAGCUCCAGCACAGUGAAAUGGACAGAAGGUAAGAGCAA [G5A C6U U7A G8U C9A G43U C44A]: the “exon inclusion enrichment index” value came out at 0.00905. To AGUUAGGGAAAGGAGCUCCAGCACAGUGAAAUGGACAGAAGGGCAGAGCAA [G5A C6G U7G C9A U10A G11A] belongs 0.00112; to AGUUGAAGAAGGGAGCUGCAGCACAGUGAAAUGGACAGAAGGGCAGAGCAA [C6A U7A C9A U10A C18G], 0.561; to AGUUCACACAGGCUGCUCCAGCACAGUGAAAUGGACAGAAGGGCAGAGCAA [G5C C6A U7C G8A U10A G13C A14U], 0.136. To AGUUUCUUUCUGGAGCUCCAGCACAGUGAAAUGGACAGAAGGGCAGAGCAA [G5U G8U C9U U10C G11U] belongs 0.279; to AGUUUCUUUUGGGAGCUCCAGCACAGUGAAAUGGACAGAAAUGCAGAGCAA [G5U G8U C9U G41A G42U], 0.115. For the variant AGUUAGGGAUGGGGGCUCCAGCACAGUGAAAUGGACAGAAGGGCAGAGCAA [G5A C6G U7G C9A A14G], the “exon inclusion enrichment index” value was 0.00241. In the case of AGUUGAAGAAGGGAGCUCCCGCACAGUGAAAUGGACAGAAGGGCAGAGCAA [C6A U7A C9A U10A A20C], the “exon inclusion enrichment index” value is 0.58. To AGUUAUAUAUGGGAGCUCCAGCACAGUGAAAUGGUCAGAAGGGCAGAGCAA [G5A C6U U7A G8U C9A A35U] belongs 0.00487; to AGUUGCUGCUGGGAGCUCCAGCACAGUGAAAUGGACAGAAGGACAGAGCAA [G43A], 0.774. To AGUUCGCGCCGGGAGCUCCAGCACAGUGAAAUGGACUGAAGGGCAGAGCAA [G5C C6G U7C U10C A37U] belongs 3.22. To AGUUGAAGAAGGGAGCUCCAGCACAGUGAAAUGGACAGAAAGGCAGAGCAA [C6A U7A C9A U10A G41A] belongs 0.4; to AGUUCACACAGGGAGCUCCAGCACAGUGAAAUGGACGUAAGGGCAGAGCAA [G5C C6A U7C G8A U10A A37G G38U], 0.0217.

For AGUUGCUGCUGGGAGCUCCAGCACAGUGAAAUGGACAGUAGGGCAGAGCAA [A39U], the “exon inclusion enrichment index” value was 0.000772. As to AGUUAGGGAUGGGAGCUCCAGCAUAGUGAAAUGGACAGAAGGGCAGAGCAA [G5A C6G U7G C9A C24U], the “exon inclusion enrichment index” value worked out at 0.00094. To AGUUGUCGACGGGAGCUCCAGCACAGUGAAAUGGACAGAAGGGCAGAGCAA [C6U U7C C9A U10C] belongs 3.37. To AGUUGACGACGGGAGCUCCAGGUCAGUGAAAUGGACAGAAGGGCAGAGCAA [C6A U7C C9A U10C C22G A23U] belongs 0.87; to AGUUCGCGCCGGGAAGUCCAGCACAGUGAAAUGGACAGAAGGGCAGAGCAA [G5C C6G U7C U10C G15A C16G], 3.04. To AGUCUCCACCGGGAGCUCCAGCACAGUGAAAUGGACAGAAGGGCAGAGCAA [U4C G5U U7C G8A U10C] belongs 1.83; to AGUUGCUGCUGGGAGCUCCAGCACAGUGAAAUGGAUGGAAGGGCAGAGCAA [C36U A37G], 0.156; to AGUUGCUGCUGGGAGCUUUAGCACAGUGAAAUGGACAGAAGGGCAGAGCAA [C18U C19U], 0.0838. AGUUGAAGAAGGGAGCUCCAGCACAGUGAAAUUAACAGAAGGGCAGAGCAA [C6A U7A C9A U10A G33U G34A]: the “exon inclusion enrichment index” value came out at 0.0617. As for AGUUGACGACGGGAGGGCCAGCACAGUGAAAUGGACAGAAGGGCAGAGCAA [C6A U7C C9A U10C C16G U17G], the figure is 0.621; as for AGUUCUUCUCGGGAGCUCCAGCACAGUGUUAUGGACAGAAGGGCAGAGCAA [G5C C6U G8C C9U U10C A29U A30U], 0.629. To AGUUAGGGAUGGGAGCUCCAGUACAGUGAAAUGGACAGAAGGGCAGAGCAA [G5A C6G U7G C9A C22U] belongs 0.000826; to AGUUCUUCUCGGGAGCUCCAGCACAGUGAAAUGGACAGAAACGCAGAGCAA [G5C C6U G8C C9U U10C G41A G42C], 2.67. As for AGUUUCUUUUGGGAGCUCCAGCAUUGUGAAAUGGACAGAAGGGCAGAGCAA [G5U G8U C9U C24U A25U], the figure is 0.127; as for AGUUGCUGCUGGGAGCUCCAGCACAGUGAGCUGGACAGAAGGGCAGAGCAA [A30G A31C], 0.126; as for AGUUAUAUAUGGGAGGACCAGCACAGUGAAAUGGACAGAAGGGCAGAGCAA [G5A C6U U7A G8U C9A C16G U17A], 0.0334. With AGUGGCCACCGGGAGCUCCAGCACAGUGAAAUGGACAGAAGGGCAGAGCAA [U4G U7C G8A U10C], the “exon inclusion enrichment index” value worked out at 1.53. To AGUUACGGCCGGGAGCUCCAGCACAGUGAAAUGGACAGAAGGGCAGAGCAA [G5A U7G U10C] belongs 0.936; to AGUUCUUCUCGGGAGCUCCGCCACAGUGAAAUGGACAGAAGGGCAGAGCAA [G5C C6U G8C C9U U10C A20G G21C], 1.71; to AGUUCGCGCCGGGAGCUCCAGCACAGUGAAAUGGACAGAAGGGGUGAGCAA [G5C C6G U7C U10C C44G A45U], 3.36. As for AGUUGCUGCUGGGAGCUCCAGCACGCUGAAAUGGACAGAAGGGCAGAGCAA [A25G G26C], the figure is 0.272; as for AGUUGAAGAAGGGAGCUCCAGCACAGUGAAAUGGACAGAAACGCAGAGCAA [C6A U7A C9A U10A G41A G42C], 1.25; as for AGUUAUAUAUGGGCUCUCCAGCACAGUGAAAUGGACAGAAGGGCAGAGCAA [G5A C6U U7A G8U C9A A14C G15U], 0.0114. As for AGUUGAAGACCGGAGCUCCAGCACAGUGAAAUGGACAGAAGGGCAGAGCAA [C6A U7A C9A U10C G11C], the figure is 4.28. Take AGUUGACGACGGGAGCUCCAGCACAGUGAAAUGGACAGAAGGGGAGAGCAA [C6A U7C C9A U10C C44G]: the “exon inclusion enrichment index” value is 4.07. AGUUGAAGAAGGGAGCUCCAGCACGAUGAAAUGGACAGAAGGGCAGAGCAA [C6A U7A C9A U10A A25G G26A]: the “exon inclusion enrichment index” value is 2.29. To AGUUGAAGAAGGGAGUUCCAGCACAGUGAAAUGGACAGAAGGGCAGAGCAA [C6A U7A C9A U10A C16U] belongs 0.472; to AGUUGCUGCUGGGAGCUCCAGCACAGUGAAAUGGACAGAGUGGCAGAGCAA [A40G G41U], 0.153.
